{"source": "patent US20170165337A1", "about": "(IMMATICS BIOTECHNOLOGIES, published 2017)", "binders": {"B1": {"name": "RLLDEQFAVL (peptide)", "peptide": "RLLDEQFAVL"}, "B2": {"name": "FLLNLQNCHL (peptide)", "peptide": "FLLNLQNCHL"}, "B3": {"name": "LLVQEPDGLMV (peptide)", "peptide": "LLVQEPDGLMV"}, "B4": {"name": "GIIDINVRL (peptide)", "peptide": "GIIDINVRL"}, "B5": {"name": "ILPTLEKELFL (peptide)", "peptide": "ILPTLEKELFL"}, "B6": {"name": "YLDDLLPKL (peptide)", "peptide": "YLDDLLPKL"}, "B7": {"name": "QLIPKLIFL (peptide)", "peptide": "QLIPKLIFL"}, "B8": {"name": "TLLDQLDTQL (peptide)", "peptide": "TLLDQLDTQL"}, "B9": {"name": "QLLPVSNVVSV (peptide)", "peptide": "QLLPVSNVVSV"}, "B10": {"name": "VLGEYSYLL (peptide)", "peptide": "VLGEYSYLL"}, "B11": {"name": "NLWSVDGEVTV (peptide)", "peptide": "NLWSVDGEVTV"}, "B12": {"name": "VIRNIVEAA (peptide)", "peptide": "VIRNIVEAA"}, "B13": {"name": "NLLDDRGMTAL (peptide)", "peptide": "NLLDDRGMTAL"}, "B14": {"name": "VMILKLPFL (peptide)", "peptide": "VMILKLPFL"}, "B15": {"name": "GLDDLLLFL (peptide)", "peptide": "GLDDLLLFL"}, "B16": {"name": "VLNDGAPNV (peptide)", "peptide": "VLNDGAPNV"}, "B17": {"name": "ATYSGLESQSV (peptide)", "peptide": "ATYSGLESQSV"}, "B18": {"name": "TILDYINVV (peptide)", "peptide": "TILDYINVV"}, "B19": {"name": "YMAPEVVEA (peptide)", "peptide": "YMAPEVVEA"}, "B20": {"name": "LLRDGIELV (peptide)", "peptide": "LLRDGIELV"}, "B21": {"name": "KLDETGVAL (peptide)", "peptide": "KLDETGVAL"}, "B22": {"name": "KTVEPPISQV (peptide)", "peptide": "KTVEPPISQV"}, "B23": {"name": "FLGGLSPGV (peptide)", "peptide": "FLGGLSPGV"}, "B24": {"name": "FMHQIIDQV (peptide)", "peptide": "FMHQIIDQV"}, "B25": {"name": "LLYDNVPGA (peptide)", "peptide": "LLYDNVPGA"}, "B26": {"name": "YTLDSLYWSV (peptide)", "peptide": "YTLDSLYWSV"}, "B27": {"name": "LLSAAEPVPA (peptide)", "peptide": "LLSAAEPVPA"}, "B28": {"name": "KLKDRLPSI (peptide)", "peptide": "KLKDRLPSI"}, "B29": {"name": "GLDDAEYAL (peptide)", "peptide": "GLDDAEYAL"}, "B30": {"name": "AVLHLLLSV (peptide)", "peptide": "AVLHLLLSV"}, "B31": {"name": "ILAGEMLSV (peptide)", "peptide": "ILAGEMLSV"}, "B32": {"name": "TLLADDLEIKL (peptide)", "peptide": "TLLADDLEIKL"}, "B33": {"name": "SQWEDIHVV (peptide)", "peptide": "SQWEDIHVV"}, "B34": {"name": "AMAGDVVYA (peptide)", "peptide": "AMAGDVVYA"}, "B35": {"name": "TLTDEQFLV (peptide)", "peptide": "TLTDEQFLV"}, "B36": {"name": "NLLDPGSSYLL (peptide)", "peptide": "NLLDPGSSYLL"}, "B37": {"name": "GLQENLDVVV (peptide)", "peptide": "GLQENLDVVV"}, "B38": {"name": "FLQDSKVIFV (peptide)", "peptide": "FLQDSKVIFV"}, "B39": {"name": "ILQPMDIHV (peptide)", "peptide": "ILQPMDIHV"}, "B40": {"name": "AMNISVPQV (peptide)", "peptide": "AMNISVPQV"}, "B41": {"name": "VLLFIEHSV (peptide)", "peptide": "VLLFIEHSV"}, "B42": {"name": "ALWDPVIEL (peptide)", "peptide": "ALWDPVIEL"}, "B43": {"name": "TLLQVFHLL (peptide)", "peptide": "TLLQVFHLL"}, "B44": {"name": "ILQALAVHL (peptide)", "peptide": "ILQALAVHL"}, "B45": {"name": "ILLGIQELL (peptide)", "peptide": "ILLGIQELL"}, "B46": {"name": "SLWNAGTSV (peptide)", "peptide": "SLWNAGTSV"}, "B47": {"name": "SLDDVEGMSV (peptide)", "peptide": "SLDDVEGMSV"}, "B48": {"name": "KIMDYSLLLGV (peptide)", "peptide": "KIMDYSLLLGV"}, "B49": {"name": "ALYLTEVFL (peptide)", "peptide": "ALYLTEVFL"}, "B50": {"name": "FLAEASVMTQL (peptide)", "peptide": "FLAEASVMTQL"}, "B51": {"name": "AVLLVLPLV (peptide)", "peptide": "AVLLVLPLV"}, "B52": {"name": "GLLESGRHYL (peptide)", "peptide": "GLLESGRHYL"}, "B53": {"name": "AVLGLVWLL (peptide)", "peptide": "AVLGLVWLL"}, "B54": {"name": "RLDYITAEI (peptide)", "peptide": "RLDYITAEI"}, "B55": {"name": "VLLEYHIAYL (peptide)", "peptide": "VLLEYHIAYL"}, "B56": {"name": "TVLPVPPLSV (peptide)", "peptide": "TVLPVPPLSV"}, "B57": {"name": "GVATAGCVNEV (peptide)", "peptide": "GVATAGCVNEV"}, "B58": {"name": "FLYIRQLAI (peptide)", "peptide": "FLYIRQLAI"}, "B59": {"name": "SLVEAQGWLV (peptide)", "peptide": "SLVEAQGWLV"}, "B60": {"name": "ILARDILEI (peptide)", "peptide": "ILARDILEI"}, "B61": {"name": "GLVETELQL (peptide)", "peptide": "GLVETELQL"}, "B62": {"name": "VLDELPPLI (peptide)", "peptide": "VLDELPPLI"}, "B63": {"name": "ILGDILLKV (peptide)", "peptide": "ILGDILLKV"}, "B64": {"name": "FLLEDLSQKL (peptide)", "peptide": "FLLEDLSQKL"}, "B65": {"name": "TLLDWQDSL (peptide)", "peptide": "TLLDWQDSL"}, "B66": {"name": "YLFEEAISM (peptide)", "peptide": "YLFEEAISM"}, "B67": {"name": "LLPTGVFQV (peptide)", "peptide": "LLPTGVFQV"}}, "data": [{"target": "T1, HLA-A*02:01 (human)", "T1 construct": "MHC class I monomer of the UV-ligand exchange assay; also called peptide-receptive MHC molecules; MHC class I", "assay": "UV peptide-exchange ELISA", "source_text": "Candidate peptides for T cell based therapies according to the present invention were further tested for their MHC binding capacity (affinity). The individual peptide-MHC complexes were produced by UV-ligand exchange, where a UV-sensitive peptide is cleaved upon UV-irradiation, and exchanged with the peptide of interest as analyzed. Only peptide candidates that can effectively bind and stabilize the peptide-receptive MHC molecules prevent dissociation of the MHC complexes. To determine the yield of the exchange reaction, an ELISA was performed based on the detection of the light chain (β2m) of stabilized MHC complexes. The assay was performed as generally described in Rodenko et al. (Rodenko et al., 2006).\n96 well MAXISorp plates (NUNC) were coated over night with 2 ug/ml streptavidin in PBS at room temperature, washed 4× and blocked forl h at 37° C. in 2% BSA containing blocking buffer. Refolded HLA-A*02:01/MLA-001 monomers served as standards, covering the range of 15-500 ng/ml. Peptide-MHC monomers of the UV-exchange reaction were diluted 100 fold in blocking buffer. Samples were incubated for 1 h at 37° C., washed four times, incubated with 2 ug/ml HRP conjugated anti-β2m for 1 h at 37° C., washed again and detected with TMB solution that is stopped with […]. Absorption was measured at 450 nm. Candidate peptides that show a high exchange yield (preferably higher than 50%, most preferred higher than 75%) are generally preferred for a generation and production of antibodies or fragments thereof, and/or T cell receptors or fragments thereof, as they show sufficient avidity to the MHC molecules and prevent dissociation of the MHC complexes.", "units": {"peptide exchange yield": "%"}, "values": [{"binder": "B1", "peptide exchange yield": "50 to 75"}, {"binder": "B2", "peptide exchange yield": "≥ 75"}, {"binder": "B3", "peptide exchange yield": "50 to 75"}, {"binder": "B4", "peptide exchange yield": "20 to 50"}, {"binder": "B5", "peptide exchange yield": "50 to 75"}, {"binder": "B6", "peptide exchange yield": "50 to 75"}, {"binder": "B7", "peptide exchange yield": "50 to 75"}, {"binder": "B8", "peptide exchange yield": "20 to 50"}, {"binder": "B9", "peptide exchange yield": "50 to 75"}, {"binder": "B10", "peptide exchange yield": "50 to 75"}, {"binder": "B11", "peptide exchange yield": "50 to 75"}, {"binder": "B12", "peptide exchange yield": "20 to 50"}, {"binder": "B13", "peptide exchange yield": "50 to 75"}, {"binder": "B14", "peptide exchange yield": "20 to 50"}, {"binder": "B15", "peptide exchange yield": "50 to 75"}, {"binder": "B16", "peptide exchange yield": "50 to 75"}, {"binder": "B17", "peptide exchange yield": "20 to 50"}, {"binder": "B18", "peptide exchange yield": "50 to 75"}, {"binder": "B19", "peptide exchange yield": "50 to 75"}, {"binder": "B20", "peptide exchange yield": "50 to 75"}, {"binder": "B21", "peptide exchange yield": "20 to 50"}, {"binder": "B22", "peptide exchange yield": "20 to 50"}, {"binder": "B23", "peptide exchange yield": "50 to 75"}, {"binder": "B24", "peptide exchange yield": "≥ 75"}, {"binder": "B25", "peptide exchange yield": "50 to 75"}, {"binder": "B26", "peptide exchange yield": "50 to 75"}, {"binder": "B27", "peptide exchange yield": "20 to 50"}, {"binder": "B28", "peptide exchange yield": "20 to 50"}, {"binder": "B29", "peptide exchange yield": "20 to 50"}, {"binder": "B30", "peptide exchange yield": "20 to 50"}, {"binder": "B31", "peptide exchange yield": "50 to 75"}, {"binder": "B32", "peptide exchange yield": "50 to 75"}, {"binder": "B33", "peptide exchange yield": "50 to 75"}, {"binder": "B34", "peptide exchange yield": "50 to 75"}, {"binder": "B35", "peptide exchange yield": "20 to 50"}, {"binder": "B36", "peptide exchange yield": "50 to 75"}, {"binder": "B37", "peptide exchange yield": "≥ 75"}, {"binder": "B38", "peptide exchange yield": "50 to 75"}, {"binder": "B39", "peptide exchange yield": "50 to 75"}, {"binder": "B40", "peptide exchange yield": "50 to 75"}, {"binder": "B41", "peptide exchange yield": "50 to 75"}, {"binder": "B42", "peptide exchange yield": "50 to 75"}, {"binder": "B43", "peptide exchange yield": "50 to 75"}, {"binder": "B44", "peptide exchange yield": "50 to 75"}, {"binder": "B45", "peptide exchange yield": "50 to 75"}, {"binder": "B46", "peptide exchange yield": "50 to 75"}, {"binder": "B47", "peptide exchange yield": "50 to 75"}, {"binder": "B48", "peptide exchange yield": "≥ 75"}, {"binder": "B49", "peptide exchange yield": "≥ 75"}, {"binder": "B50", "peptide exchange yield": "50 to 75"}, {"binder": "B51", "peptide exchange yield": "50 to 75"}, {"binder": "B52", "peptide exchange yield": "50 to 75"}, {"binder": "B53", "peptide exchange yield": "50 to 75"}, {"binder": "B54", "peptide exchange yield": "50 to 75"}, {"binder": "B55", "peptide exchange yield": "50 to 75"}, {"binder": "B56", "peptide exchange yield": "50 to 75"}, {"binder": "B57", "peptide exchange yield": "≥ 75"}, {"binder": "B58", "peptide exchange yield": "50 to 75"}, {"binder": "B59", "peptide exchange yield": "50 to 75"}, {"binder": "B60", "peptide exchange yield": "50 to 75"}, {"binder": "B61", "peptide exchange yield": "50 to 75"}, {"binder": "B62", "peptide exchange yield": "50 to 75"}, {"binder": "B63", "peptide exchange yield": "50 to 75"}, {"binder": "B64", "peptide exchange yield": "50 to 75"}, {"binder": "B65", "peptide exchange yield": "50 to 75"}, {"binder": "B66", "peptide exchange yield": "50 to 75"}, {"binder": "B67", "peptide exchange yield": "50 to 75"}]}]}
